Results reported in patent CN102559636A.

Molecular target: CD6分子 (CD6 on the cell surface) (human) (UniProt P30203)
Experiment: cell-based or functional assay

HUT-78生长抑制率 (CCK-8, 72 h, 100 ng/mL Hum-zap) at T1h 0.8 μM: 11.4%
细胞生长抑制率 of HUT-78 (CCK-8, 72 h, 100 ng/mL Hum-zap) at T1h 8×10-2, 8×10-3 and 8×10-4 μM: > 65%
细胞生长抑制率 of HUT-78 (CCK-8, 72 h, 100 ng/mL Hum-zap) at T1h 8×10-5, 8×10-6, 8×10-7 and 8×10-8 μM: < 10%
Substance: 人源化抗CD6单克隆抗体T1h (Itolizumab) (antibody)
